In PMC8226212, “LaPT2 Gene Encodes a Flavonoid Prenyltransferase in White Lupin” (Frontiers in Plant Science, 2021):

Columns and labels:
Experiment in all cases: HPLC product assay, yeast microsomes, Eadie-Hofstee plot
Assay type in all cases: biochemical, Lupinus albus
[1] = substrate: CC(C)=CCOP(=O)(O)OP(=O)(O)O; settings: co-substrate 400 μM kaempferol, 10 mM Mg2+, MOPS pH 7.0, 30°C
[2] = substrate: COc1ccc(-c2oc3cc(O)cc(O)c3c(=O)c2O)cc1; settings: co-substrate DMAPP, 10 mM Mg2+, MOPS pH 7.0, 30°C
[3] = substrate: O=C1c2c(O)cc(O)cc2O[C@H](c2ccc(O)cc2)[C@H]1O; settings: co-substrate DMAPP, 10 mM Mg2+, MOPS pH 7.0, 30°C
[4] = substrate: O=c1c(O)c(-c2ccc(O)c(O)c2)oc2cc(O)cc(O)c12; settings: co-substrate DMAPP, 10 mM Mg2+, MOPS pH 7.0, 30°C
[5] = substrate: O=c1c(O)c(-c2ccc(O)c(O)c2)oc2cc(O)ccc12; settings: co-substrate DMAPP, 10 mM Mg2+, MOPS pH 7.0, 30°C
[6] = substrate: O=c1c(O)c(-c2ccc(O)cc2)oc2cc(O)cc(O)c12; settings: co-substrate DMAPP, 10 mM Mg2+, MOPS pH 7.0, 30°C
[7] = substrate: O=c1c(O)c(-c2ccc(O)cc2O)oc2cc(O)cc(O)c12; settings: co-substrate DMAPP, 10 mM Mg2+, MOPS pH 7.0, 30°C
[8] = substrate: O=c1c(O)c(-c2ccccc2)oc2cc(O)cc(O)c12; settings: co-substrate DMAPP, 10 mM Mg2+, MOPS pH 7.0, 30°C

B1: LaPT2 (Lupinus albus) (protein)
chain: MGFVLAATSFPKAPSFTSGRSSWNSKEYTKNYYASSHVTTLWHKTGIIQKEPCFMMAWPQNLKLHCKVKGGDKRNYVMNAASGKSNEYETQDLDQRNNWGTLINALHVFFKFIRPTATLSLLLGATLTTLIAVEKLSDISAAYFIGLLQVMVVSSCMQVFMAGLNQLYDVEIDKINKPYLPLVSGELPFKNGVIIVATTFILGHLFPLIIGSGPLFWSFVFSSSLAIAYCADLPLLRWKRHSALTALNYIIDLGGVKPLGYVLHMQTYVFKRPPTFSRPLIFCMAMSSVFAIIIAIFKDITDMEGDEKFGIKSLSLHLGKKPVFWICVSLLQMAYVVAILMGTLSPFLWVKIAMGLGHGILASLVSYYANSVDLKSNPAIQSFYMFIWKLLTVEYFLIPLFR
notes: open reading frame in pDR196GW, yeast W303A1 microsomal fraction; contig deduced as 407 aa (GFP construct named 88-403); predicted 87-aa transit peptide, no truncation stated for the assay
- Km [1]: 66.11 ± 7.54 µM
- Km [2]: 115.19 ± 34.25 µM
- Km [3]: 20.08 ± 4.44 µM
- Km [4]: 102.81 ± 6.41 µM
- Km [5]: 10.02 ± 3.19 µM
- Km [6]: 74.07 ± 3.78 µM
- Km [7]: 20.85 ± 3.79 µM
- Km [8]: 20.66 ± 2.91 µM
